By Kd is commonly meant the constant that tells how readily two partners part at equilibrium. Lower therefore signals tighter binding.

Like-named read-outs stand apart in the source and are kept apart here.

Our source for the Kd values is doi:10.1101/2023.06.06.543969 (2023).

Assay in all cases: BLI
On the technique in general: BLI is a label-free optical method that tracks binding on a fibre tip over time.

In test [1] the target is T1, influenza hemagglutinin (HA) from H1N1 A/California/07/2009 (influenza A virus H1N1 …).
For test [2], the target named is T2, biotinylated αTSR domain of P. falciparum circumsporozoite protein (P. falciparum, biotinylated).
T2 chain: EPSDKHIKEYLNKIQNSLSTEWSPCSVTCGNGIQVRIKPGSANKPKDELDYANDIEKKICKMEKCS

Test [3] concerns the target His-tagged HIV Env MPER peptide (HIV).
Test [4] addresses T1, influenza hemagglutinin (HA) from H1N1 …. The source holds these as a separate data set.
The target in test [5] is T3, biotinylated SARS-CoV-2 fusion peptide (SARS-CoV-2, biotin on the N-terminus).
T3 peptide: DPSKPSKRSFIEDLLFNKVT

Test [6] has as its target His6-tagged SARS-CoV-2 receptor-binding domain (SARS-CoV-2, UniProt P0DTC2).
The target of test [7] is HCV (isolate H77) E2 domain (HCV (isolate H77)).

B1: 5J8 Fab (WT) (Fab, V domains shown)
VH: EVQLVESGPGLVKPSDILSLTCAVSGYSISSNYYWGWIRQPPGKGLEWIGSIYHSGSTYYKPSLESRLGISVDTSKNQFSLKLSFVSAADTAVYYCARHVRSGYPDTAYYFDKWGQGTLVTVSS
VL: SYVLTQPPSVSVAPGETARISCGGNNIGTKVLHWYQQTPGQAPVLVVYDDSDRPSGIPERFSGSNSGNTATLTISRVEVGDEADYYCQVWDISTDQAVFGGGTKLTVL
B1: in test [1], the Kd was 4 nM.

B2: Fab234 (WT) (Fab, V domains shown)
VH: EVQLVESGGGLVKPGGSLRLSCAASGFNFSTHIMNWVRQAPGKGLEWVSSISSSGTYIYYADSMKGRFTISRDNPKNSLYLQMNSLRAEDTAVYYCARARGFIQFHYYMDVWGKGTTVAVSS
VL: SYVLTQPPSVSVAPGKTARITCGGNNIGSKSVHWHQQRPGQAPVLVVYDDKIRPSGIPERFSGSNSGNTATLIISRVEAGDEADYYCQVWHSSSDPVVFGGGTKLTVL
As to B2, the Kd in test [2] is 0.2 nM.

B3: 4E10 Fab (WT) (Fab, V domains shown)
VH: QVQLVQSGAEVKRPGSSVTVSCKASGGSFSTYALSWVRQAPGRGLEWMGGVIPLLTITNYAPRFQGRITITADRSTSTAYLELNSLRPEDTAVYYCAREGTTGWGWLGKPIGAFAHWGQGTLVTVSS
VL: EIVLTQSPGTQSLSPGERATLSCRASQSVGNNKLAWYQQRPGQAPRLLIYGASSRPSGVADRFSGSGSGTDFTLTISRLEPEDFAVYYCQQYGQSLSTFGQGTKVEVK
In turn, B3 showed a Kd in test [3] of 9.1 nM.

B4: 3E1 Fab (WT) (Fab, V domains shown)
VH: QVQLQESGPGLVKPSETLSLTCSVSGASISSYYWIWIRQPAGKGLEWIGRFYTSGSPNYNPSLRSRVTMSVDTSKNQFSLKLTSVTAADTAVYYCAREEHITFGGVIVRYWGQGTLVTVSP
VL: DIQMTQSPATLSASVGDRVSITCRASQSISSWLAWYQQKPGKAPKLLIYKASSLESGVPSRFSGSGSGSEFTLTISSLQPDDFAIYYCQQYNSYPWTFGQGTKVEIK
Molecule B4 showed a Kd in test [4] of 6.9 nM.

B5: COV44–62 Fab (WT) (Fab, V domains shown)
VH: QMQLMQSGAEVKKPGASVTVSCKASGDTFSDYRIHWVRQAPGQGLEWMGRMNPKSGDTNFAQKFQGRVTMTRDMSINTAYMTLSGLTFDDTALYYCASLLIVGGFDPLDDFEVWGQGTMVTISS
VL: QSALTQPPSASGSPGQSVTISCSGTSSDVGGYNFVSWYQHHPGKAPKILIYEVTKRPSGVPDRFSGSKSGNTASLTVSGLQAEDEADYYCSSYGGTNNLLFGGGTKLTVL
Molecule B5 returned a Kd in test [5] of 26 nM.

B6: GAR12 Fab (WT) (Fab, V domains shown)
VH: EVQLVQSGGGLVQPGGSLRLSCAASGFTFSSYAMSWVRQAPGKGLEWVLSISGSGGSTYYADSVKGRFTISIDNSKKTVYLQMNSLRAEDTAVYYCAKSGEQQLVQAEYFHHWGQGTLVTVSS
VL: DIQMTQSPSTLSASVGDRVTITCRASQSIGRWLAWYQQKPGKAPKLLIYDASSLESGVPSRFSGSGFGTEFTLTISSLQPDDFATYYCQQCDSLLTFGGGTKLEIK
In test [6], B6 yielded a dissociation constant Kd of 3.5 nM.

B7: GAR12 Fab VL D50K (Fab, V domains shown)
VH: EVQLVQSGGGLVQPGGSLRLSCAASGFTFSSYAMSWVRQAPGKGLEWVLSISGSGGSTYYADSVKGRFTISIDNSKKTVYLQMNSLRAEDTAVYYCAKSGEQQLVQAEYFHHWGQGTLVTVSS
VL: DIQMTQSPSTLSASVGDRVTITCRASQSIGRWLAWYQQKPGKAPKLLIYKASSLESGVPSRFSGSGFGTEFTLTISSLQPDDFATYYCQQCDSLLTFGGGTKLEIK
On to B7, for which the Kd in test [6] is 153 nM.

B8: HC84.26.5D Fab (WT) (Fab, V domains shown)
VH: VQPVQSGAEVKKPGSSVKVSCEASGGTHSNYVITWVRQAPGQGLEWMGGFIPDFRTAMYAQGFQGRVTITADESTSLAYMELTNLRSEDTAVYYCARGPLSRGYYDYWGPGTLVTVSS
VL: YVLTQPPSVSVAPGQTASITCSGDKLGDKYVSWYQQRPGQSPVLVLYQDSKRPSGIPERFSGSNSGNTATLTISGTQAMDEADYYCQAWDSSALVFGGGTKLTVL
In test [7], B8 returned a Kd of 0.9 nM.
